In publication PMC11968997:
Like-named read-outs stand apart in the source and are kept apart here.

Substance	degradation_or_half_life (other: succinylation at K83)	enzymatic_activity (other: succinylation at K83)	other (other: succinylation at K83)	enzymatic_activity (phosphorylation at S293)
PDHA1: K83R	no change	decreases	increases	
PDHA1: K83R S293A (compared with K83R)				increases
